According to publication PMC12382473, “Retinoid X receptor γ interacts with peroxisome proliferator-activated receptor-γ to promote browning during adipose tissue differentiation” (Adipocyte, 2025):

Target: T1, Flag-PPARγ, transfected in HEK293 cells (UniProt P37231 1-505)
T1 sequence (looked up): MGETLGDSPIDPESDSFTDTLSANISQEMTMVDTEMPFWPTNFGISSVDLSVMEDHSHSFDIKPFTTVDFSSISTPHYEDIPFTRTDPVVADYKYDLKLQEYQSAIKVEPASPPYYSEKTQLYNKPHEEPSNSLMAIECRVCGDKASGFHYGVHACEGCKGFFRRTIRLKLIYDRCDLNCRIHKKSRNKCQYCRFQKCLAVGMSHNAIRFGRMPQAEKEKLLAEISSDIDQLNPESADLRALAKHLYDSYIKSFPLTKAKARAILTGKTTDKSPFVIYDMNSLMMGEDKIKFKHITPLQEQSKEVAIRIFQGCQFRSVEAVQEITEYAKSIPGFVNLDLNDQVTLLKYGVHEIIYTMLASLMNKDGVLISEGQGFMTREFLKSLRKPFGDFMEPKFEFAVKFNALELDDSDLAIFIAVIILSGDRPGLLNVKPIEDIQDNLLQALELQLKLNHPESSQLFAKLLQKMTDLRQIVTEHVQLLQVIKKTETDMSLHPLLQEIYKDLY
Assay: cell-based or functional assay

luciferase activity of a PPRE reporter in HEK293 cells, RXRγ co-expressed with PPARγ (PPARγ alone 1.6-fold; RXRγ alone no increase): 2.1 fold | luciferase activity of a UCP1 promoter reporter in HEK293 cells, RXRγ co-expressed with PPARγ (PPARγ alone 1.5-fold; RXRγ alone no increase): 3.4 fold
B1: Myc-RXRγ (retinoid X receptor γ), transfected in HEK293 cells (natural protein, UniProt P48443 1-463, looked up)
chain: MYGNYSHFMKFPAGYGGSPGHTGSTSMSPSAALSTGKPMDSHPSYTDTPVSAPRTLSAVGTPLNALGSPYRVITSAMGPPSGALAAPPGINLVAPPSSQLNVVNSVSSSEDIKPLPGLPGIGNMNYPSTSPGSLVKHICAICGDRSSGKHYGVYSCEGCKGFFKRTIRKDLIYTCRDNKDCLIDKRQRNRCQYCRYQKCLVMGMKREAVQEERQRSRERAESEAECATSGHEDMPVERILEAELAVEPKTESYGDMNMENSTNDPVTNICHAADKQLFTLVEWAKRIPHFSDLTLEDQVILLRAGWNELLIASFSHRSVSVQDGILLATGLHVHRSSAHSAGVGSIFDRVLTELVSKMKDMQMDKSELGCLRAIVLFNPDAKGLSNPSEVETLREKVYATLEAYTKQKYPEQPGRFAKLLLRLPALRSIGLKCLEHLFFFKLIGDTPIDTFLMEMLETPLQIT
